The RNAGym collection of RNA variant scans (doi:10.7554/elife.80360)

B1: Twister Ribozyme (parent)
chain: AACACUGCCAAUGCCGGUCCCAAGCCCGGAUAAAAGUGGAGGGGGCGG

Variants of: B1
Experiment: self-cleavage, relative activity (ratio to wild type); higher = more cleavage; co-transcriptional

Variant	self-cleavage
AACACUGCGAAUGCCGGUCCCAAGCCCGGAUAAAAGUGGCGGGGGCGG [C9G A40C]	0.102
AACACUGCGAAUGCCGGUCCCAAGCCCGGAUGAAAGUGGAGGGGGCGG [C9G A32G]	0.731
AACACUGCGAAUGCCGGUCCCAAGCCCGGAUCAAAGUGGAGGGGGCGG [C9G A32C]	0.195
AACACUGCUAAUGCCGGUCCCAAGCCCGGAUAAAAGUGGGGGGGGCGG [C9U A40G]	0.14
AACACUGCUAAUGCCGGUCCCAAGCCCGGAUAAAAGUGGCGGGGGCGG [C9U A40C]	0.161
AACACUGCUAAUGCCGGUCCCAAGCCCGGAUAAAAGUGGUGGGGGCGG [C9U A40U]	0.162
AACACUGCAAAUGCCGGGCCCAAGCCCGGAUAAAAGUGGAGGGGGCGG [C9A U18G]	0.159
AACACUGCAAAUUCCGGUCCCAAGCCCGGAUAAAAGUGGAGGGGGCGG [C9A G13U]	0.927
AACACUGCGAAUGCCGGUCCCAAGCCCGGAUAAACGUGGAGGGGGCGG [C9G A35C]	0.556
AACACUGCGAAUGCCGGUCCCAAGCCCUGAUAAAAGUGGAGGGGGCGG [C9G G28U]	0.428
AACACUGCGAAUGCCGGUCCCAAGCCCCGAUAAAAGUGGAGGGGGCGG [C9G G28C]	0.495
AACACUGCGAAUGCCGGUCCCAAGCCCAGAUAAAAGUGGAGGGGGCGG [C9G G28A]	0.512
AACACUGCGAAUGGCGGUCCCAAGCCCGGAUAAAAGUGGAGGGGGCGG [C9G C14G]	0.0866
AACACUGCGAAUGCCGGUCCCACGCCCGGAUAAAAGUGGAGGGGGCGG [C9G A23C]	0.0567
AACACUGCUAAUGCCGGUCCCAUGCCCGGAUAAAAGUGGAGGGGGCGG [C9U A23U]	0.0746
AACACUGCUAAUGCCGGUCCCAGGCCCGGAUAAAAGUGGAGGGGGCGG [C9U A23G]	0.0717
AACACUGCGAAUGCCGGUCCCAAGCCCGGAUAAAAGUGGAGGGAGCGG [C9G G44A]	0.731
AACACUGCGAAUGCCGGUCCCAAGCCCGGAUAAAAGUGGAGGGUGCGG [C9G G44U]	0.427
AACACUGCGAAUGCCGGUCCCAAGCCCGGAUAAAAGUGGAGGGGGCGU [C9G G48U]	0.377
AACACUGCGAAUGCCGGUGCCAAGCCCGGAUAAAAGUGGAGGGGGCGG [C9G C19G]	0.073
AACACUGCGAAUGCCGGUUCCAAGCCCGGAUAAAAGUGGAGGGGGCGG [C9G C19U]	0.144
AACACUGCGAAUGCCGGUACCAAGCCCGGAUAAAAGUGGAGGGGGCGG [C9G C19A]	0.0927
AACACUGCAAAUGCCGGUCCCAAGACCGGAUAAAAGUGGAGGGGGCGG [C9A C25A]	0.0586
AACACUGCAAAUGCCGGUCCCAAGCCCGGAUAAAAGUGGAGGGGUCGG [C9A G45U]	0.232
AACACUGCAAAUGCCGGUCCCAAGCCCGGAUAAAAGUGGAGGGUGCGG [C9A G44U]	0.544
AACACUGCGAAUGCCGGUCCCAAGCCCGGAUAAAAGUGGAGGUGGCGG [C9G G43U]	0.134
AACACUGCAAAUGCCGGUCCCAACCCCGGAUAAAAGUGGAGGGGGCGG [C9A G24C]	0.119

Variant	self-cleavage
AACACUGCAAAUGCCGGUCCCAAGCCCGGAUAAAAGUGCAGGGGGCGG [C9A G39C]	0.119
AACACUGCAAAUGCCGGUCCUAAGCCCGGAUAAAAGUGGAGGGGGCGG [C9A C21U]	0.0545
AACACUGCAAAUGCCGGUCCCAAGCCCGGAUAAAAGUGGAGAGGGCGG [C9A G42A]	0.149
AACACUGCAAAUGCCGGUCCCAAGCCCGGAUAAAAGUGGAGUGGGCGG [C9A G42U]	0.149
AACACUGCUAAUGCCGGUCCCCAGCCCGGAUAAAAGUGGAGGGGGCGG [C9U A22C]	0.779
AACACUGCUAAUGCCGGUCCCGAGCCCGGAUAAAAGUGGAGGGGGCGG [C9U A22G]	0.0671
AACACUGCUAAUGCCGGUCCCUAGCCCGGAUAAAAGUGGAGGGGGCGG [C9U A22U]	0.313
AACACUGCGAAUGCCGGUCCCAAGCCCGGAUAAAAGUGGAAGGGGCGG [C9G G41A]	0.168
AACACUGCAAAUGCCGGUCCCAAGCCCGGAUAAAAGGGGAGGGGGCGG [C9A U37G]	0.33
AACACUGCAAAUGCCGGUCCCAAGCCCGGAUAAAAGAGGAGGGGGCGG [C9A U37A]	0.233
AACACUGCUAAUGCCGGUCCCAAGCCCGGAUUAAAGUGGAGGGGGCGG [C9U A32U]	0.585
AACACUGCUAAUGCCGGUCCCAAGCCCGGAUCAAAGUGGAGGGGGCGG [C9U A32C]	0.64
AACACUGCGAGUGCCGGUCCCAAGCCCGGAUAAAAGUGGAGGGGGCGG [C9G A11G]	0.715
AACACUGCGAUUGCCGGUCCCAAGCCCGGAUAAAAGUGGAGGGGGCGG [C9G A11U]	0.985
AACACUGCUAAUGUCGGUCCCAAGCCCGGAUAAAAGUGGAGGGGGCGG [C9U C14U]	0.596
AACACUGCUAAUGACGGUCCCAAGCCCGGAUAAAAGUGGAGGGGGCGG [C9U C14A]	0.56
AACACUGCUAUUGCCGGUCCCAAGCCCGGAUAAAAGUGGAGGGGGCGG [C9U A11U]	0.84
AACACUGCUAGUGCCGGUCCCAAGCCCGGAUAAAAGUGGAGGGGGCGG [C9U A11G]	0.597
AACACUGCGAAUGCCUGUCCCAAGCCCGGAUAAAAGUGGAGGGGGCGG [C9G G16U]	0.346
AACACUGCGAAUGCCGGUCCCAAGCCCGGAUAAAAAUGGAGGGGGCGG [C9G G36A]	0.204
AACACUGCUAAUGCCGGUACCAAGCCCGGAUAAAAGUGGAGGGGGCGG [C9U C19A]	0.0695
AACACUGCUAAUGCCGGUUCCAAGCCCGGAUAAAAGUGGAGGGGGCGG [C9U C19U]	0.226
AACACUGCGAAUGCCGGUCCAAAGCCCGGAUAAAAGUGGAGGGGGCGG [C9G C21A]	0.0451
AACACUGCGAAUGCCGGUCCCAAGCCCGGGUAAAAGUGGAGGGGGCGG [C9G A30G]	0.791
AACACUGCAAAUGCCGGUCCCAAGCCCGGAUAAAAGUGGAGGCGGCGG [C9A G43C]	0.0978
AACACUGCGAAUGCGGGUCCCAAGCCCGGAUAAAAGUGGAGGGGGCGG [C9G C15G]	0.0512
AACACUGCGAAUGCAGGUCCCAAGCCCGGAUAAAAGUGGAGGGGGCGG [C9G C15A]	0.278
